The text below walks through data of article PMC3791854.

The target of this experiment is HIV Env on CEM-Env cells (HIV, strain not stated).

With “CD4-CD28-CD3ζ chimeric receptor (from UniProt P01730 26-396)”, the IFNγ in the culture of CEM-Env + CD4-dTc turned out to be 838 pg/mL, the IL2 in the culture of CEM-Env + CD4-dTc was 318 pg/mL and the TNFα in the culture of CEM-Env + CD4-dTc stood at 249 pg/mL.
